# Source: patent US20210239714A1, “TEST METHOD FOR OLFACTORY MUCOSA OR OLFACTORY MUCUS IN MAMMALS” (Ajinomoto Co., Inc., priority 2018, published 2021)
# B1: lipocalin 15 (protein, listed as Homo sapiens)
# chain: MEVLLQPDFNAEKFSGLWYVVSMASDCRVFLGKKDHLSMSTRAIRPTEEGGLHVHMEFPGADGCNQVDAEYLKVGSEGHFRVPALGYLDVRIVDTDYSSFAVLYIYKELEGALSTMVQLYSRTQDVSPQALKSFQDFYPTLGLPKDMMVMLPQSDACNPESKEAP
# notes: secreted protein produced in the olfactory mucosa and secreted into the olfactory mucus; recombinant hLCN15 prepared in E. coli
# Tested on: olfactory receptor (OR X)
# Experiment: Luciferase reporter assay using olfactory receptor-expressing HEK293T cells, effect of concurrent addition of LCN15
# Format: cell-based, human
# Details: mixed solution of isovaleric acid (30 μM) and LCN15 (1 μM) compared to isovaleric acid (30 μM) alone; 3 hours, 37° C.
# Source text: A human olfactory receptor gene was cloned by a PCR method using a human olfactory receptor gene purchased from TrueClone cDNA Clone Collection (OriGene) as a template base on sequence information registered in GenBank. Each gene amplified by the PCR method was subcloned into downstream of a Rho tag sequence of a Rho-pME18S vector (K. Kajiya et al., Journal of Neuroscience, 15 Aug. 2001, 21 (16) 6018-6025, which is incorporated herein by reference in its entirety) using EcoRI and XhoI sites to obtain an expression vector for the human olfactory receptor.
# HEK293T cells that expressed the olfactory receptor (OR X) was prepared by the following procedure. […]
# The olfactory receptor (OR X) expressed on HEK293T cells is conjugated with Golf to activate adenylate cyclase, thereby increases an amount of intracellular cAMP. In this Example, the measurement for response of the olfactory receptor to a test substance employed luciferase reporter gene assay in which increase of the amount of intracellular cAMP was monitored as increase of a luminescence value derived from firefly luciferase. […] In conjugation with this, a luminescence value derived from Renilla luciferase was used as an internal standard for correcting errors of a gene transfer efficiency and a cell number in each well. […]
molecule,measurement,value
B1,response intensity of the olfactory receptor (Luc/hRLuc value),more enhanced
